# Measurements reported in publication doi:10.1101/2025.01.22.634233.
# Legend:
# Test in all cases: fluorescence polarisation
# [1] = target: pS5-(CTD)2 peptide, 5,6-FAM-labelled
# [2] = target: pY1pS5-(CTD)2 peptide, 5,6-FAM-labelled
# [3] = target: non-phosphorylated (CTD)2 peptide, 5,6-FAM-labelled
Substance,Kd [1] [µM],Kd [2] [µM],Kd [3] [µM]
BRCA1 BRCT R1699L (from UniProt P38398 1646-1859) (domain or fragment),413,,
"BRCA1 BRCT (BRCA1^1646-1859), wild type (from UniProt P38398 1646-1859) (domain or fragment)",,184,948
"BRCA1 BRCT^S1655F,K1702M (from UniProt P38398 1646-1859) (domain or fragment)",895,,
